Results taken from patent publication US20140178405A1.

B1: VHH 2KD1 anti VP6 (VHH)
VHH: DVQLQASGGGFVQPGDSLSLSCAASGGTFSSYSIGWFRQGPGKEREFVATISSSDSPWYGEPAKGRFTVARVNAKNTAYLHLNRLKPEDTATYYCAAGSVQHMANENEYVYWGQGTQVTVSS
B2: VHH 2KA4 anti VP6 (VHH)
VHH: DVQLQASGGGLVQAGDSLRLSCVQSGPGRYGVGWFRQAPGKEREFVAAVSGSGGSKYYGDSVQGRFTISKDDAKNTVYLQMNNLKPEDTAVYYCAVRRTYSGSNLWHRSDEYDSWGPGTQVTVSS
B3: VHH 3B2 anti VP6 (VHH)
VHH: DVQLQASGGGLAQAGDSLTLSCAASGRTFSGYVVGWFRQAPGAEREFVGAIRWSEDSTWYGDSMKGRILISRNNIKNTVNLQMFNLKPEDTAVYVCAAGAGDIVTTETSYNYWGRGTQVTVSS
B4: VHH 3A6 anti VP6 (VHH)
VHH: EVQLQASGGGFVQPGGSLSLSCAVSGRSFGDDVMGWFRQAPGKEREFVSAIRFRSNSPFYGDPGKGRFTIARDSAKDTVYLHMYRLRPDDTAVYYCAVGDGALVNRASDYTYWGQGTQVTVSS
B5: bivalent VHH biv2KA4 (bispecific antibody)
chain: MADVQLQASGGGLVQAGDSLRLSCVQSGPGRYGVGWFRQAPGKEREFVAAVSGSGGSKYYGDSVQGRFTISKDDAKNTVYLQMNNLKPEDTAVYYCAVRRTYSGSNLWHRSDEYDSWGPGTQVTVSSSGPSTPPRPSPSTPPSDVQLQASGGGLVQAGDSLRLSCVQSGPGRYGVGWFRQAPGKEREFVAAVSGSGGSKYYGDSVQGRFTISKDDAKNTVYLQMNNLKPEDTAVYYCAVRRTYSGSNLWHRSDEYDSWGPGTQVTVSSGRHHHHHH

Tests used:
Test in all cases: cell-based or functional assay
[1] = molecular target: native VP6 of bovine rotavirus C486 (SbI; P[1]G6), in the virus (bovine rotavirus strain C486)
[2] = molecular target: native VP6 of equine rotavirus H2 (Sb no I, no II; P[12]G3), in the virus (equine rotavirus strain H2)
[3] = molecular target: native VP6 of human rotavirus Wa (SbII; P[8]G1), in the virus (human rotavirus strain Wa)
[4] = molecular target: native VP6 of bovine rotavirus IND (SbI; P[5]G6), in the virus (bovine rotavirus strain IND)

Sequence of native VP6 of human rotavirus Wa (SbII; P[8]G1), in the virus (human rotavirus strain Wa) (P03530 whole entry): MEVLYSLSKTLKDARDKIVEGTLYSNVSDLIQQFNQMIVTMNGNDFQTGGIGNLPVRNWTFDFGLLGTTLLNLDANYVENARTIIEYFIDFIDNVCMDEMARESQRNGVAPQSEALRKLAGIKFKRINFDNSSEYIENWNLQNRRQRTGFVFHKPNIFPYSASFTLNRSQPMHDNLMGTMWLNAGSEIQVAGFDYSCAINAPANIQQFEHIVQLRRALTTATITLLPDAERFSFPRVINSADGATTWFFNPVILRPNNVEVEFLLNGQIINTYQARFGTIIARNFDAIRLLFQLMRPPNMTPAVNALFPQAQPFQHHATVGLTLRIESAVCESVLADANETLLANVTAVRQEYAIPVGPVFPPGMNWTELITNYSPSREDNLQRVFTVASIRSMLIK
Sequence of native VP6 of equine rotavirus H2 (Sb no I, no II; P[12]G3), in the virus (equine rotavirus strain H2) (P16488 whole entry): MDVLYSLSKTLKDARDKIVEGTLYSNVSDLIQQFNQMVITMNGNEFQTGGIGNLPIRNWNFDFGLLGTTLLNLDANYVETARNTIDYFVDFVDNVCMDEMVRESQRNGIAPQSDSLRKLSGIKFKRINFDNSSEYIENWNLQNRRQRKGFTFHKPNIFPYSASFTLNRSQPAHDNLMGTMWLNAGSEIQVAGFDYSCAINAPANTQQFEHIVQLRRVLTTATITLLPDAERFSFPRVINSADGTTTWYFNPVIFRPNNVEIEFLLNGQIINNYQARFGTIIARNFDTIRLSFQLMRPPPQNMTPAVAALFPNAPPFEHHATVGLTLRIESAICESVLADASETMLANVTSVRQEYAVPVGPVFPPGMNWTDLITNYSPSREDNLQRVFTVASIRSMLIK

Molecule	VN antibody titre (inverse of the highest VHH dilution that reduces >80% of the FFU per 100 FFU), VHH at 2 mg/ml (titre (reciprocal dilution)) [1]	VN antibody titre (inverse of the highest VHH dilution that reduces >80% of the FFU per 100 FFU), VHH at 2 mg/ml (titre (reciprocal dilution)) [2]	VN antibody titre (inverse of the highest VHH dilution that reduces >80% of the FFU per 100 FFU), VHH at 2 mg/ml (titre (reciprocal dilution)) [3]	VN antibody titre (inverse of the highest VHH dilution that reduces >80% of the FFU per 100 FFU), VHH at 2 mg/ml (titre (reciprocal dilution)) [4]	further results
non-related VHH, directed against a cellular protein					VN antibody titre (inverse of the highest VHH dilution that reduces >80% of the FFU per 100 FFU), VHH at 0.4 mg/ml (titre (reciprocal dilution)) [1]: < 8; VN antibody titre (inverse of the highest VHH dilution that reduces >80% of the FFU per 100 FFU), VHH at 0.4 mg/ml (titre (reciprocal dilution)) [2]: < 8; VN antibody titre (inverse of the highest VHH dilution that reduces >80% of the FFU per 100 FFU), VHH at 0.4 mg/ml (titre (reciprocal dilution)) [3]: < 8; VN antibody titre (inverse of the highest VHH dilution that reduces >80% of the FFU per 100 FFU), VHH at 0.4 mg/ml (titre (reciprocal dilution)) [4]: < 8
B1	2048	512	8192	2048	
B2	< 8	< 8	< 8	< 8	
B3	1024	512	8192	1024	
B4	1024	128	2048	1024	
B5					VN antibody titre (inverse of the highest VHH dilution that reduces >80% of the FFU per 100 FFU), VHH at 0.5 mg/ml (titre (reciprocal dilution)) [1]: < 8; VN antibody titre (inverse of the highest VHH dilution that reduces >80% of the FFU per 100 FFU), VHH at 0.5 mg/ml (titre (reciprocal dilution)) [2]: < 8; VN antibody titre (inverse of the highest VHH dilution that reduces >80% of the FFU per 100 FFU), VHH at 0.5 mg/ml (titre (reciprocal dilution)) [3]: 32; VN antibody titre (inverse of the highest VHH dilution that reduces >80% of the FFU per 100 FFU), VHH at 0.5 mg/ml (titre (reciprocal dilution)) [4]: < 8
